Assay [1] has as its target recombinant LILRB1 (human) (UniProt Q8NHL6). In words: ELISA, control. In general terms: An ELISA detects its analyte on a solid surface through an enzyme-linked reagent.
Assay [2] has the same target. In words: Octet RED96, LILRB1 at 100, 33.3, 11.1 and 3.7 nM.
In assay [3] the target is LILRA6 on reporter cells (UniProt Q6PI73). In words: flow cytometry on 2B4 cells expressing the LILR, PE. For orientation: In flow cytometry, cells or beads pass a laser one at a time.
The target of assay [4] is LILRA5 on reporter cells (UniProt A6NI73). The assay is described as above.
Assay [5] deals with LILRB4 on reporter cells (UniProt Q8NHJ6). Described as above.
Assay [6] deals with LILRA2 on reporter cells (UniProt Q8N149). The description is as above.
In assay [7] the target is LILRA4 on reporter cells (UniProt P59901). The assay is described as above.
In assay [8] the target is LILRB3 on reporter cells (UniProt O75022). Described as above.
Assay [9] addresses LILRB5 on reporter cells (UniProt O75023). The assay is described as above.
The target in assay [10] is LILRB2 on reporter cells (UniProt Q8N423). The assay is described as above.
Assay [11] has as its target LILRB1 expressed on cell surface (human) (UniProt Q8NHL6). The description is as above.
Assay [12] has as its target LILRA1 on reporter cells (UniProt O75019). The assay is described as above.

LILRA6 on reporter cells, sequence (Q6PI73 24-481): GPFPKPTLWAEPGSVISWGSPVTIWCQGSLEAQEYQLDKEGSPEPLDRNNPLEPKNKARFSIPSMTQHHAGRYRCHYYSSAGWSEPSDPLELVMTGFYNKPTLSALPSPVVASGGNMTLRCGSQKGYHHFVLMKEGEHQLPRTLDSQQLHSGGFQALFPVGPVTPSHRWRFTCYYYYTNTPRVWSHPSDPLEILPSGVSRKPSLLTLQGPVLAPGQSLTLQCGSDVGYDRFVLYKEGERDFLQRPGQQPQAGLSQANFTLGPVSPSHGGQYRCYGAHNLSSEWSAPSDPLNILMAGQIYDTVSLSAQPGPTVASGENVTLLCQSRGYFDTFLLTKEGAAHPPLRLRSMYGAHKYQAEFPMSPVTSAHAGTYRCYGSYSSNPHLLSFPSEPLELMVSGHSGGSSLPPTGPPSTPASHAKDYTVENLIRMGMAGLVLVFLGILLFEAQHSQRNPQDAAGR
LILRA2 on reporter cells, sequence (Q8N149 24-483): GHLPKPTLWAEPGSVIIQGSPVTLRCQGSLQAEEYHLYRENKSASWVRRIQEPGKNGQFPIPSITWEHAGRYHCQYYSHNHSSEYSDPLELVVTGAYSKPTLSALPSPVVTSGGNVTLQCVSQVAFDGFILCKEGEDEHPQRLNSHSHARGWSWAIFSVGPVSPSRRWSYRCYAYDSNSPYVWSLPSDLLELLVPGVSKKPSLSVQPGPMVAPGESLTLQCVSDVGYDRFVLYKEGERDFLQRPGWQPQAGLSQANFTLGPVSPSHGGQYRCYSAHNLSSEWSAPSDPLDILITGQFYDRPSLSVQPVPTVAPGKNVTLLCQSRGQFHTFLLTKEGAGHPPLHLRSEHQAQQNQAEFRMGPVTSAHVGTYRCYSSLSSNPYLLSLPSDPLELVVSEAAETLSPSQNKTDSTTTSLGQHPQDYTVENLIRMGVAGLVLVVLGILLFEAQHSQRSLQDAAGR
LILRB2 on reporter cells, sequence (Q8N423 22-597): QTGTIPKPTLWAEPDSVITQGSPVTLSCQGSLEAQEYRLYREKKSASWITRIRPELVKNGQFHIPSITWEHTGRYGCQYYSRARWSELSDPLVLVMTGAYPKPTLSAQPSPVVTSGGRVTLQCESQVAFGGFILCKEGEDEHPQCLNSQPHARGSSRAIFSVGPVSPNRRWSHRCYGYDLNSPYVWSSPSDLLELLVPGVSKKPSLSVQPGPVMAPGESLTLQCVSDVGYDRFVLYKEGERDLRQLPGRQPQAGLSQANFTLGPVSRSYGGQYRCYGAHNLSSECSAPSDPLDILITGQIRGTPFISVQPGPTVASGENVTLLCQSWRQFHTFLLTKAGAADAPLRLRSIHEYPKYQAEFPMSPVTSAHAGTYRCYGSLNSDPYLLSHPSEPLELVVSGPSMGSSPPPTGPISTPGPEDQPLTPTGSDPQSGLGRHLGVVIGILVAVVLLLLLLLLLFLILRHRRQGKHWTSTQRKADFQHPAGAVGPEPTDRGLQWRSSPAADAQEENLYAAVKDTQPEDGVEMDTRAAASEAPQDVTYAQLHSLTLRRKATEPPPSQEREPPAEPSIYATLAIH
LILRA5 on reporter cells, sequence (A6NI73 42-299): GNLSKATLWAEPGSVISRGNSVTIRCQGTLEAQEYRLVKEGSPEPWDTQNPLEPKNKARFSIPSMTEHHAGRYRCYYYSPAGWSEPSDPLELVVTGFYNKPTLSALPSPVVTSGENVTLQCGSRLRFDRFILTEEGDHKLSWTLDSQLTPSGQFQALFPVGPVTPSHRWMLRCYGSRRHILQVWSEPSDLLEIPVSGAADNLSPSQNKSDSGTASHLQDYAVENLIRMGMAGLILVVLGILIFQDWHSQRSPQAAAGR
LILRB1 expressed on cell surface (human), sequence (Q8NHL6 24-650 limits assumed): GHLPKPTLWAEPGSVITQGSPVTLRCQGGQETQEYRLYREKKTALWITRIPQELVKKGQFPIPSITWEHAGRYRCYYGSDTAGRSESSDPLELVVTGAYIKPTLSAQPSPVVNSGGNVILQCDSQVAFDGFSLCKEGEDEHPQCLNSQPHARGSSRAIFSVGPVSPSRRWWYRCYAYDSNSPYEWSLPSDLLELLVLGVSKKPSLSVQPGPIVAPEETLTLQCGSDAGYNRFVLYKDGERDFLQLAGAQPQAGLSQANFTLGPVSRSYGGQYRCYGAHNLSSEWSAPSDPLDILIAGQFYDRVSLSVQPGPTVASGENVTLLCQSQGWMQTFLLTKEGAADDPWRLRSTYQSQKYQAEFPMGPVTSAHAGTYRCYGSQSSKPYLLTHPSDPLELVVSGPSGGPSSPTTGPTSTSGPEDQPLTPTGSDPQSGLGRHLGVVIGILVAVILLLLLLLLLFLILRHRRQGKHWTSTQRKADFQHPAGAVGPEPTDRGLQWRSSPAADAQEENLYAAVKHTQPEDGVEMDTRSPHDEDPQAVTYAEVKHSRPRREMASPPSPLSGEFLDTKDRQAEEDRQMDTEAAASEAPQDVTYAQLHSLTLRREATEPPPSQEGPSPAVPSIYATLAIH
LILRA1 on reporter cells, sequence (O75019 17-489 limits assumed): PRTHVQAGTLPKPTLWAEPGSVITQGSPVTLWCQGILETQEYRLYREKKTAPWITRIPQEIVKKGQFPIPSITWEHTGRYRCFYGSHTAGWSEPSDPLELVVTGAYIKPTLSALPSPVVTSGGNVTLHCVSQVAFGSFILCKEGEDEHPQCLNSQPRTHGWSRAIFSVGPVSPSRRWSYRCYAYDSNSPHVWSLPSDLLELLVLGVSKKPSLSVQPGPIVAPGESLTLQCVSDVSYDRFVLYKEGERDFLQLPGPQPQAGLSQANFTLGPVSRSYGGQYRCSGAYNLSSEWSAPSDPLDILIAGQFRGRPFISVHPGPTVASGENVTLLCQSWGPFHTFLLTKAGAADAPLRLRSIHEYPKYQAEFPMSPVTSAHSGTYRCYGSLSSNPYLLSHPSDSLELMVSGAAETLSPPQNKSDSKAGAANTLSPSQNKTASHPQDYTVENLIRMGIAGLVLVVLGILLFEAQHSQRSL
LILRB5 on reporter cells, sequence (O75023 24-590 limits assumed): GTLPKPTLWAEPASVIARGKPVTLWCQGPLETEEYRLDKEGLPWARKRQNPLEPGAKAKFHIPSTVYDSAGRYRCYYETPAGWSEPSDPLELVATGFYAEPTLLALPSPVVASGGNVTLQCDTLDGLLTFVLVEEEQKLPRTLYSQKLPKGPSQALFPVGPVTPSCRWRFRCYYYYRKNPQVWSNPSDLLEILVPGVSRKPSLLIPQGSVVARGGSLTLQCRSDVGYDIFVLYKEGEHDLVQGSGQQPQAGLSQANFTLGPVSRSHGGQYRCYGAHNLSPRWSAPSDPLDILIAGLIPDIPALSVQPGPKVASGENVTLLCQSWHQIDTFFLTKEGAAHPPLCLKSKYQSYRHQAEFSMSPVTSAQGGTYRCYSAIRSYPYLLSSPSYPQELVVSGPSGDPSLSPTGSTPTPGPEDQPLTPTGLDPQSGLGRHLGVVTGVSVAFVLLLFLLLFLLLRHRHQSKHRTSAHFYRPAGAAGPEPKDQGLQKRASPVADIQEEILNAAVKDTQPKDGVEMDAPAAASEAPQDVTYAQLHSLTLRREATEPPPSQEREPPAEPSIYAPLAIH
recombinant LILRB1 (human), sequence (Q8NHL6 24-461 limits assumed): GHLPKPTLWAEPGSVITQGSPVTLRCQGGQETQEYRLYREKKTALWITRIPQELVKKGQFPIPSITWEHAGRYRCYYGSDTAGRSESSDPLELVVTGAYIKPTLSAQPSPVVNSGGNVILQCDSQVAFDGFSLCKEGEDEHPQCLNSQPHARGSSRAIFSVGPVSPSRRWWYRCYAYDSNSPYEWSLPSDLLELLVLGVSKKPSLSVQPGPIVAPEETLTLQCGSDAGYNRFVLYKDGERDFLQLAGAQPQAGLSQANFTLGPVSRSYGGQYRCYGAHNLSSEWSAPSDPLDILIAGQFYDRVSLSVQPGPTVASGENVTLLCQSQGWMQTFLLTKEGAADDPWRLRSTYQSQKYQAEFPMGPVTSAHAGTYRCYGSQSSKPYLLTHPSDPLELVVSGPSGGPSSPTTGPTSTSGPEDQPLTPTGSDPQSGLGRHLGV
LILRA4 on reporter cells, sequence (P59901 24-499): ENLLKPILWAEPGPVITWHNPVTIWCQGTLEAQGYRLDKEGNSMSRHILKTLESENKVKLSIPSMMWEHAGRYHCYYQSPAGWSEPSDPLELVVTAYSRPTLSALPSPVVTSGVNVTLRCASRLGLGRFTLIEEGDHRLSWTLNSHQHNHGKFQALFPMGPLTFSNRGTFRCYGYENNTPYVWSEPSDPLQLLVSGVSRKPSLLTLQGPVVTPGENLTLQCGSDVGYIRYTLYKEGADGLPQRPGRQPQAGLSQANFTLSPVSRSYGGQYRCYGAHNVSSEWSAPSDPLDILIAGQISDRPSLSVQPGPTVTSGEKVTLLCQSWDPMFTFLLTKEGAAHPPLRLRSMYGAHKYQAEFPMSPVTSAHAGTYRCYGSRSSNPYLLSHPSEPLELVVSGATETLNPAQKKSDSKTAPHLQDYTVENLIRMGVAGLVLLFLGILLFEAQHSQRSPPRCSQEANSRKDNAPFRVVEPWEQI

For Ctrl, the OD450 in assay [1] is 0.1 OD450.

With “HP-F1 (commercial anti-LILRB1 monoclonal antibody)”, the Kd (commonly the constant that tells how readily two partners part at equilibrium) in assay [2] was found to be 8.26 nM. Also, the percent of cells in the gate in [3] stood at 0.144%; in assay [4] it was 0.343%; in assay [5], 0.0568%; in [6] it was 85.3%; in assay [7], 0.301%; in [8] it was 0.196%. Further, the percent of cells in the gate in [9] worked out at 0.0127%; in assay [10], 1.52%; in [11], 98.5%; in assay [12], 80.8%.

As to “GHI/75 (commercial anti-LILRB1 monoclonal antibody)”, the Kd in assay [2] is 5.13 nM. Further, the percent of cells in the gate in assay [3] amounted to 0.273%; in assay [4], 0.219%; in [5] it was 0.524%; in assay [6] it was 1.25%; in assay [7], 0.16%; in assay [8], 0.867%. Further, the percent of cells in the gate amounted to 0.558% in assay [9], 1.58% in assay [10], 98.8% in [11] and 1.22% in assay [12].

Take R&D 292319 (antibody): the percent of cells in the gate is 0.199% in [3]; 0.282% in assay [4]; 0.466% in [5]; 0.334% in assay [6]; 0.27% in assay [7]; 0.239% in assay [8]. The percent of cells in the gate in [9] turned out to be 0.359%; in assay [10], 0.65%; in assay [11], 96.3%; in assay [12] it was 0.249%.

Values taken from patent US12723078.
